The values below are quoted from earlier work in paper PMC8277102.

The term pKd denotes the negative decadic logarithm of the Kd, by convention in mol/L.

pKd: −log10 of the molar value.

For this data set, the target named is EmrA (Escherichia coli) (UniProt P27303). The data set can be described thus: SPR. Background: SPR reads the build-up and loss of mass on a sensor chip optically.

EmrA (from UniProt P27303): the pKd was 5.73.
